# Like-named read-outs stand apart in the source and are kept apart here.
# B1: AKAP95 (endogenous, HeLa cell nuclear extract) (natural protein)
# chain: not shown
# B2: FLAG-HA-tagged AKAP95 (FH-AKAP95), wild type (natural protein)
# chain: not shown
# Key:
# [1] = target: the molecule itself; experiment: SDS-resistant dimer on SDS-PAGE immunoblot
# [2] = target: the molecule itself; experiment: SDS-resistant dimer on SDS-PAGE immunoblot; remark: listed apart in the source
Protein,stoichiometry N [1],stoichiometry N [2]
B1,2,
B2,,2
